Consider one substance from article PMC10511499.

The target of the experiment is human dynein complex, wild type (tagged IC2C with the dynein subunits of 293 cells) (told two ways: 'Rat IC2C' (methods), human (results, legend) | human (endogenous in Flp-In T-REx 293 cells)) (UniProt Q14204). As to the kind of experiment: TIRF microscopy microtubule recruitment assay; mammalian proteins; dynein or DDB on biotin-microtubules, SRP90 assay buffer with 2 mM AMP-PNP, 10 min; apparent affinity.

“human dynactin p150-CC1 (residues 224-554) (from UniProt Q14203-1 224-554) (domain or fragment)”: the fold greater apparent affinity than Ndel1 is 6 fold.
